Test results: publication PMC11187062, “Structure of human DPPA3 bound to the UHRF1 PHD finger reveals its functional and structural differences from mouse DPPA3” (Communications Biology, 2024)
Several values for one entry are separate records, joined by “and”; a condition that tells them apart may be missing. Equal values may be shown once.

T1: human UHRF1 PHD finger (residues 299-366) (human, UniProt Q96T88 299-366)
T1 construct: UHRF1 (ubiquitin-like PHD and RING finger domain-containing protein 1), human, PHD finger, residues 299-366; also called hPHD; hUHRF1 PHD finger; source: E. coli, expressed as a GST-fusion protein, purified (glutathione Sepharose 4B, HiTrap Q, Superdex 75)
T1 sequence (looked up): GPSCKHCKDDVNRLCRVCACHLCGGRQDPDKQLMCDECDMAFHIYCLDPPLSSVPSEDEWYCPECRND

T2: human UHRF1 PHD finger, residues 299-366, M332A (human, UniProt Q96T88 299-366, M332A)
T2 construct: UHRF1, human, PHD finger, residues 299-366, with M332A; also called hPHD M332A; source: E. coli, expressed as a GST-fusion protein, purified
T2 sequence (looked up): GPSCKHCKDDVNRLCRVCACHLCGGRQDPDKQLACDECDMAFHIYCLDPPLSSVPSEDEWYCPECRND

T3: human UHRF1 PHD finger, residues 299-366 (human, UniProt Q96T88 299-366)
T3 construct: UHRF1 (ubiquitin-like PHD and RING finger domain-containing protein 1), human, PHD finger, residues 299-366; also called hPHD; hUHRF1 PHD finger; source: E. coli, expressed as a GST-fusion protein, purified (glutathione Sepharose 4B, HiTrap Q, Superdex 75)
T3 sequence (looked up): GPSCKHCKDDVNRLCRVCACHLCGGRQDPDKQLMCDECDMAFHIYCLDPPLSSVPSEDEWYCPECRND

T4: hPHD M332A (human, UniProt Q96T88 299-366, M332A)
T4 construct: UHRF1, human, PHD finger, residues 299-366; also called M332A hPHD mutation; source: E. coli, site-directed mutant of hPHD; purification of the hPHD mutants not described separately
T4 sequence (looked up): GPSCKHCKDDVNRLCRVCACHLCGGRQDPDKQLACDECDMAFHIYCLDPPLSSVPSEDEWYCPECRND

T5: human UHRF1 PHD finger, residues 299–366 (human, UniProt Q96T88 299-366)
T5 construct: UHRF1 (ubiquitin-like PHD and RING finger domain-containing protein 1), human, PHD finger, residues 299-366; 15N- or 13C,15N-labelled for NMR; also called hPHD; hUHRF1 PHD finger; source: E. coli, expressed as a GST-fusion protein, purified (glutathione Sepharose 4B, HiTrap Q, Superdex 75)
T5 sequence (looked up): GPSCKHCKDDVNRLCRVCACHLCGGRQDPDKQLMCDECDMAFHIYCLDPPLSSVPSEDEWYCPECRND


Legend:
Details in all cases: both partners purified
[1] = target: T1, human UHRF1 PHD finger (residues …); test: ITC; Microcal PEAQ-ITC, 293 K, 10 mM HEPES pH 7.5, 150 mM NaCl, 0.25 mM TCEP; one-site model; n = 3
[2] = target: T2, human UHRF1 PHD finger, residues …; test: ITC; Microcal PEAQ-ITC, 293 K, 10 mM HEPES pH 7.5, 150 mM NaCl, 0.25 mM TCEP, one-site model; which partner was titrated is not stated; single titrations and their means
[3] = target: T3, human UHRF1 PHD finger, residues 299-366; test: as above
hPHD M332A = target: T4, hPHD M332A; test: ITC; Microcal PEAQ-ITC, 293 K, 10 mM HEPES pH 7.5, 150 mM NaCl, 0.25 mM TCEP; one-site model; at least three independent titrations
[4] = target: T5, human UHRF1 PHD finger, residues 299–366; test: as above
[5] = target: T5, human UHRF1 PHD finger, residues 299–366; test: SEC-SAXS; 12 mg/ml hPHD:hDPPA3_(81-118) complex on Superdex 200 Increase 5/150 GL, 20 mM Tris-HCl pH 7.5, 150 mM NaCl, 2 mM DTT, 10 µM zinc acetate, 5% glycerol, 20 °C
[6] = target: T3, human UHRF1 PHD finger, residues 299-366; test: ITC; Microcal PEAQ-ITC, 293 K, 10 mM HEPES pH 7.5, 150 mM NaCl, 0.25 mM TCEP, one-site model; which partner was titrated is not stated; single titrations and their means; remark: listed apart in the source
[7] = target: T1, human UHRF1 PHD finger (residues …); test: ITC; Microcal PEAQ-ITC, 293 K, 10 mM HEPES pH 7.5, 150 mM NaCl, 0.25 mM TCEP; one-site model; n = 3; remark: listed apart in the source

Binder | Kd [4] | Kd [6] | further results
SRRGVRTLLSVQREPMARLRYMLLGGVRTHERRPTNKE (peptide, UniProt Q6W0C5 81-118, looked up, also called K95P mutant of hDPPA3; source: bought: Toray Research Center (Tokyo, Japan)) [K95P substituted hDPPA3_(81-118)] |  |  | Kd [1]: 1260 nM
SRRGVRTLLSVQREKMARLRYMLLGGVRTHERRPTNKE (domain or fragment, also called hDPPA3 WT; source: E. coli BL21 (DE3), His-Ub fusion, purified (Ni Sepharose, YUH1 cleavage, HiTrap SP, Superdex 75)) [human DPPA3, residues 81-118] |  |  | Kd [2]: 9490 nM and 6150 nM and 8570 nM; Kd [3]: 918 nM and 804 nM and 921 nM and 831 nM
SRRGVRTLLSVQREKMARLRYMLLGGVRTHERRPTNKE (domain or fragment, Used for SAXS, NMR, CD, ITC and ubiquitination experiments; also called hDPPA3; source: E. coli BL21 (DE3), His-Ub fusion, purified (Ni Sepharose, YUH1 cleavage, HiTrap SP, Superdex 75)) [human DPPA3, residues 81–118 (recombinant)] | 868 nM |  | Kd (hPHD M332A): 8070 nM; stoichiometry N [5]: 1
SRRGVATLLSVQREKMARLRYMLLGGVRTHERRPTNKE (domain or fragment, human, UniProt Q6W0C5 81-118, looked up, source: E. coli BL21 (DE3), His-Ub fusion, purified by the same protocol as the wild type) [hDPPA3_(81-118) R86A] | 20000 nM |  | 
SRRGVAALLSVQREKMARLRYMLLGGVRTHERRPTNKE (domain or fragment, human, UniProt Q6W0C5 81-118, looked up, source: E. coli BL21 (DE3), His-Ub fusion, purified by the same protocol as the wild type) [hDPPA3_(81-118) R86A/T87A] | > 85000 nM |  | 
SRRGVRTLLSVQPEKMPRLRYMLLGGVRTHERRPTNKE (domain or fragment, human, UniProt Q6W0C5 81-118, looked up, source: E. coli BL21 (DE3), His-Ub fusion, purified by the same protocol as the wild type) [hDPPA3_(81-118) R93P/A97P] | 9390 nM |  | 
SRRGVRTLLSVQREKAARARYMLLGGVRTHERRPTNKE (peptide, UniProt Q6W0C5 81-118, looked up, source: E. coli BL21 (DE3), purified (Ni Sepharose, His-Ub removed by YUH1, HiTrap SP, Superdex 75)) [hDPPA3 residues 81-118, M96A/L99A] |  |  | Kd [7]: 550 nM
SRRGVRTLLSVQREKMAALRYALLGGVRTHERRPTNKE (peptide, UniProt Q6W0C5 81-118, looked up, source: E. coli BL21 (DE3), purified (Ni Sepharose, His-Ub removed by YUH1, HiTrap SP, Superdex 75)) [hDPPA3 residues 81-118, R98A/M102A] |  |  | Kd [7]: 352 nM

Now from value to binder, other results behind:

Kd [4] | Kd [6] | Binder | further results
16500 nM |  | SRRGVRALLSVQREKMARLRYMLLGGVRTHERRPTNKE (domain or fragment, human, UniProt Q6W0C5 81-118, looked up, source: E. coli BL21 (DE3), His-Ub fusion, purified by the same protocol as the wild type) [hDPPA3_(81-118) T87A] | 
 | 639 nM and 460 nM and 552 nM | SRRGVRTLLSVQREKMAALRYALLGGVRTHERRPTNKE (domain or fragment, UniProt Q6W0C5 81-118, looked up, also called hDPPA3_mutant1_R98AM102A; source: E. coli BL21 (DE3), His-Ub fusion, purified by the same protocol as the wild type) [human DPPA3, residues 81-118, R98A/M102A] | 
 | 2890 nM and 1670 nM and 1870 nM | SRRGVRTALSAQREKMARLRYMLLGGVRTHERRPTNKE (domain or fragment, UniProt Q6W0C5 81-118, looked up, DPPA3, human, with L88A and V91A; named only in the sheet; also called hDPPA3_mutant2_L88AV91A) [human DPPA3, residues 81-118, L88A/V91A] | 
 | 355 nM and 347 nM | SRRGVRTLLSVQREKAARARYMLLGGVRTHERRPTNKE (domain or fragment, UniProt Q6W0C5 81-118, looked up, also called hDPPA3_mutant3_M96AL99A; source: E. coli BL21 (DE3), His-Ub fusion, purified by the same protocol as the wild type) [human DPPA3, residues 81-118, M96A/L99A] | 
 | 11200 nM and 9620 nM and 7360 nM | SRRGVRTLLSVQPEKMPRLRYMLLGGVRTHERRPTNKE (domain or fragment, UniProt Q6W0C5 81-118, looked up, also called hDPPA3_mutant4_R93PA97P; source: E. coli BL21 (DE3), His-Ub fusion, purified by the same protocol as the wild type) [human DPPA3, residues 81-118, R93P/A97P] | 
